Key:
[1] = biological target: T1, pP1192R DNA topoisomerase II, full-length (African swine fever virus, UniProt A0A2X0THW2 1-1192); experiment: cryo-EM; details: protein: recombinant; tags: C-terminal 8xHis; chain copies: 2; blunt
[2] = biological target: T1, pP1192R DNA topoisomerase II, …; experiment: EMSA; details: protein: recombinant; tags: C-terminal 8xHis; chain copies: 2; label: 5'-Cy5 on O1; four-way junction of O1-O4
[3] = biological target: T1, pP1192R DNA topoisomerase II, …; experiment: size exclusion chromatography; details: protein: recombinant; tags: C-terminal 8xHis; chain copies: 2; four-way junction of O1-O4

B1: 52 bp dsDNA (G-segment) (dsDNA)
DNA 1: ATGCATATATATGTATATGTATGTGTGTATATATACACATATATATATATAT
DNA 2: ATATATATATATATGTGTATATATACACACATACATATACATATATATGCAT
B1: binds [1].

B2: four-way junction DNA, Cy5 (structured_DNA)
DNA 1: CTGGACGCAATCTGACAATGCGCTCATCGTCATCCTCGGCACGCGCCG
DNA 2: CGGCGCGTGCCGAGGATGACGATGAGATAGGCGTTAACGCGGCCTA
DNA 3: TAGGCCGCGTTAACGCCTATTTGCCCGGGAGTACCGGCATTCCT
DNA 4: AGGAATGCCGGTACTCCCGGGCAACGCATTGTCAGATTGCGTCCAG
B2: binds [2].

B3: four-way junction DNA (structured_DNA)
DNA 1: B2 DNA 1
DNA 2: B2 DNA 2
DNA 3: B2 DNA 3
DNA 4: B2 DNA 4
B3: binds [3].

— article PMC11139879
